Experimental data from the domain aggregation screens of Martell et al. (2025).

Assay: soluble fraction after stress (log2 fold change); higher = more stays soluble; pooled small domains, quantitative proteomics
Details: stress: 50 degC
Method in brief: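 Pooled custom libraries of small protein domains were measured in a high-throughput format, with quantitative proteomics as the read-out. Each library was stressed at 50°C. Aggregation propensity is given as the base-two logarithm of the fold change in how much of each protein stays soluble after the stress. Higher values mean a larger share of the protein remains in solution.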

Row | Sequence | soluble fraction (log2)
1 | HMSDFSSNLRRLRKRAGLSQDALAEKLSVARQTVSSWERGNSYPDLDMLVRISDALATDPNELLYPN | -0.00275
2 | HMSDGDFLQKIAEEILAQFPDKVKEYQKGKKGLIGFFMGELMKRSKGKADPKVATRILEEILSEKNGSS | 0.17
3 | HMSDGTVYGSDGVIKVNLPQSGMLRIYATDGTTLVNRWQAAGIDTISMPRGLYIVRFDNQVWKVVV | -0.74
4 | HMSDHSSLAGKEGVAVTPLRPAGTAEIDGKRMDVVTMGDYIKAGDHIKVVKVEGNRIIVAKN | 0.0433
5 | HMSDHYEVLGVDRNATDDQIKKAYRRLARELHPDVNDAPESQEKFKLVTHAYEVLSDPDERRKYDMG | 0.0925
6 | HMSDIYSLFERELGRTLSSYEYEIIGKWIEKGVSEDTIKRALKEAILNGVTNFKYIDKIIYDWSKN | -0.499
7 | HMSDLFKYSPYKTLTEEQYKITYQIIERLKTDLSNGIPRISIIDGGAGTGKSILGIFLLKLLVDAQN | 0.343
8 | HMSDNLSASERKALSHMEGMESVRSSEVADLLGMSQRGAQKLLNRLVDKGLASSFGANRNRRYSVE | 0.306
9 | HMSDNLTIVRAVYSGLSQRQAAATYHVSRNTVSLLLRHARNRGWLTLEDLAQLDNAAFSKSL | -4.13
10 | HMSDPFSPTTTLKNRAKSVLSVDSFEDFKLFIKKMWQEKKEGVYQNPNVETWKDWDNISVKDAKILISLI | -0.474
11 | HMSDPHEELMSRIARDLSIPLTRVVAEMNTIISKEFGGHIRPEGAVVILAKRSGVEFSDLLPALRENILK | -1.05
12 | HMSDQIQQIAERIAGLRDIAGYSVEELARELGISAEEYKRYESGEVDIPIGFLYKLANKYNVELTAILT | -0.0876
13 | HMSDRFLDQEGVALSTLRPSGTVVLDSGEHLDVVTRGEFIEQGERVKVIKAESTWYVVEQIN | -0.268
14 | HMSDRLRLGRRIRAARLEQNLSQAALAERLGISASYLNLLEHDRRSLTTVLLLKLAQVLGLELRDLAAG | -1.99
15 | HMSDRLRPGDMVVVVGKKKRYPVFSAFDIDFVEAGDVGKVLTVKREEVVVGFPKKGEGTFTPSELNIAH | -0.597
16 | HMSDTGQELHDALNMARRTLTILEEQAAGYTALTIPARLVLELEEKRKDVVRLETQIRSAATGTPG | -0.202
17 | HMSDTLPRLLWNFQMAKRLDEMNGAEKRRYQLVLIHPQASEKERDYASSFAHQARMLGIEVAIRDS | -0.345
18 | HMSDVVFRINANGLNVSGLANGERVSVYDTTGKLVTTAVSTQDNGTLNLPLKQSGGIYIARTQSGVSFKFT | -0.411
19 | HMSDYKSYLQELVQTDKKSLSYNVVKETGPAHDKTFEVEVEVDGIIYAHGVGKSKKEAEQNAAKNAIMISA | 0.149
20 | HMSDYLGSLSHEEKMIFNHFDEDSSTIENMAKKTELKPELISQIFLNLELRGFLRQTEGGLYEKI | -0.000348
21 | HMSDYYEVLGVTRQADAEEIKRAYRRKARQLHPDVAGPGHEEEFKEVTVAYEVLSDPEKRQAYDLGGQDAL | 0.179
22 | HMSEDAVKFRAAVEVENGLAQRNLNKNQAALILGVDRSYFTYIISGKKTPSPDMAKRIGLLLGFDWRVFYA | -2.03
23 | HMSEEIKVPNFVGSTFEKAQALAQETGLEIARGEDVYSPDQEEGKITSQNPTADSVVSPGKLITVYVSKG | 0.00159
24 | HMSEIKDRLREARRNKGLSQAGLSKLLGVSQASIAAIESGRNKRPTNLVSIAKALDVSPYWLETGK | -0.124
25 | HMSEITQTLSMIGKEVTLEIPDEKDKTKTTEVKGIVTEASFKDGTGKVKVNGEYYSIAYITSIRDT | 0.335
26 | HMSEIVEEQNTKLKQAVSKLSKRQQEVLYLKFEEGLDYEQISKIMDLKYQSVRNLVSTAIIKIKEH | -2.16
27 | HMSEKELTDLIERIKERRLKLEMSYQDLSDATGISKSTLQRYETGYIKKVPINQIEILAKALHTTPSYLMG | -0.238
28 | HMSEKIDINNSNELELKQLPLTNEQIKSLIEFRRLHGEIQNIYELKNIDFFNIEKVHELKAHIEIKKII | -0.427

Row | Sequence | soluble fraction (log2)
29 | HMSELADDPVYTALEKAADKAGLQLTVRILNDLADAVLKRGKKKLTAAQAGKVIARAESELAKSRID | -0.0759
30 | HMSELDASYLGQRVRYVSGFTETDPSEGLVEFRGSNWRARAEHPPLDHSGHWVIVKVESNTLWVEEKSN | -0.22
31 | HMSENEIDELRRRFAREAMALMERKGEEVSRTRLAAELSVARARIDAVFPEESDLLEAVTAEWFA | -0.562
32 | HMSENEVQAKVKEIVDRYAGDKSALIAILQDVQDEYRYLPKEALVSIQQQMNIPLSRVYEVATFYDAFS | -0.424
33 | HMSEPIYTQLKEILTQKIVNGEFPPGARLPSEYELTELYHISRSTVRLALKELEASGMIVRRRGKGTFVSS | -1.76
34 | HMSEPRYRQLATILAQEIRSNHSAGDQLPSEQALAKRFEVNRHTVRRAVDELVAAGMVTRHQGWGTQVV | -0.0244
35 | HMSEQGVITAKFASIVGNQNIQLVMFPDSVYLKGQVSSEEEKKRAETVASSLIQDRKIVNLIEFE | -0.0169
36 | HMSEQIALQFAKAKQHHTGIALKGIEALELRYKGYTGKEIAALYHTSPKSVFSWISRAKQKLRQN | -0.375
37 | HMSEQLHALIDRLDDIPDDELKKNWPGTLRDLVDVISAELHRQGIEPAQAGMLARKVAAAQAGYMG | -0.344
38 | HMSEQLKQIAERIKELRNIAGLGEEELAAKLDIPVDTYREYESGNVDIPVSFLYKISGMFNVELTAIL | 0.0417
39 | HMSEQLVGTVGHITVGTARTASPAEAKFLDAFEQPHYLLVEPIEPKDIFQQGDKVVLVKKQHHSWLATRYI | -0.267
40 | HMSEQTLEDVRRLIEHLPESQKEVVKMRYYQDLSFKEIADLKGISINTALGRMHYAINNMRKMAKEYGL | -1.54
41 | HMSEQVQLQAQVEDDLIGKRLDQVVAQLFPDYSRSRLQGWIKDGSLTVDGESRRPRDKMMGGEVVRVEATL | 0.0984
42 | HMSEQVTMIDVEGKTETEAKKALEDLGLKVEITYESADAAAGTVIGQDVKAGSTVSEGSRVTLTVSGQ | 0.0626
43 | HMSERQTGTVKWFNNAKGFGFITMADRPDDIFVHFRAIQGDGYRSLNEGEEVEFSLVEGPKGLQAEEVTK | 0.037
44 | HMSESAGKAFDLLFYLAKAGETVSLARLSRETGMNKATALRYLNVLESKGVVERSKLGWTLGLSLFELGSK | -2.05
45 | HMSESIFTLYGDEKFEKIRYYLKERGFITLDALARFDFDELLFVPGVSELLISEAKQLFSRYDTSSLAAKE | -0.17
46 | HMSETAEFIIQVNGKVRAKLQLPTDISKEEIQKLALADENVQKYLNGEPRKIIFPPNTRLVSIV | -0.0471
47 | HMSETEEWTVEGGQAGDRIDRHVAAMLGDDVSRSQVQQWIRAGRVTVNGRAVKPSDTVEEGDRVAVDLPEP | 0.0588
48 | HMSETVYQYVARQLRDMLGSGEIPVGQQLPTYRELAKRFQVSLSVIQRAMRQLKAEAVVSIAHGQGVKAVR | -0.42
49 | HMSEVPVLVAKTDIKELELIDDRKVTLINVPQKFKMPGSFNSPEEVYNTIAAVPIKEGEQITKPRVTWP | 0.134
50 | HMSEVSEILTRARFFAGVKTDAELSTLLKIPYGTLIGWKTRKNIPESRIAQMALILGIRRDTLIPA | -1.71
51 | HMSEYIFGKNVVKEAFNNPSRIEEIYVLDKNMEFVSLAKKYHIKYTVITSSEMNKMVSGNHQGVVALVK | -0.277
52 | HMSFDENEALRKALDVFWEKGYDGTSLSDLTEAMGINKPSLYATFGNKDQLFLKAIEMYENR | -0.992
53 | HMSFDTFKKVFSNLVEKSGYSDAEIARRLGVNRSTISRWKSGEQSPPLPKVKEIANFFGVSPMVFVD | 0.0554
54 | HMSFFNGNQMKILRKKLQLNQEEMGEKLGIKKSYVSQLENNRKEITEEIDQILQELEQEYQDKM | -0.323
55 | HMSFGESLKKLSIALNSIRKLATTDAGKKDPKVADLLGQIRDTFNSYRTHLRKNYPDLYSGIKNQL | -0.62
